Source: publication PMC4874178 (Biochemistry, 2015)
Numbering of substitutions follows the chain as printed. Numbers in names are those of the source. Like-named read-outs stand apart in the source and are kept apart here.

B1: Staphylococcus aureus strain Newman CstB, wild-type, full-length (enzyme, UniProt G5ELA4 1-444, looked up)
chain: MFFKQFYDNHLSQASYLVGCQRTGEAIIIDPVRDLSKYIEVADSEGLTITQATETHIHADFASGIRDVAKRLNANIYVSGEGEDALGYKNMPSKTQFVKHGDIIQVGNVKLEVLHTPGHTPESISFLLTDLGGGSSVPMGLFSGDFIFVGDIGRPDLLEKSVQIKGSTEISAKQMYESVQNIKNLPDYVQIWPGHGAGSPCGKALGAIPISTIGYEKINNWAFNEIDETKFIESLTSNQPAPPHHFAQMKQVNQFGMNLYQSYDVYPSLDNKRVAFDLRSKEAFHGGHTKGTINIPYNKNFINQIGWYLDFEKDIDLIGDKSTVEKAKHTLQLIGFDKVAGYRLPKSGISTQSVHSADMTGKEEHVLDVRNDEEWNNGHLDQAVNIPHGKLLNENIPFNKEDKIYVHCQSGVRSSIAVGILESKGFENVVNIREGYQDFPESLK
B2: C201S CstB, full-length (enzyme)
chain: B1 chain with C201S
B3: CstB^Rhod (isolated C-terminal rhodanese domain of CstB, residues 347-444) (domain or fragment, Staphylococcus aureus strain Newman, UniProt G5ELA4 347-444, looked up)
chain: SGISTQSVHSADMTGKEEHVLDVRNDEEWNNGHLDQAVNIPHGKLLNENIPFNKEDKIYVHCQSGVRSSIAVGILESKGFENVVNIREGYQDFPESLK

Key:
SEC [1] = target: the molecule itself; experiment: SEC
SEC [2] = target: the molecule itself; experiment: SEC; remark: listed apart in the source

Row | Protein | stoichiometry N (SEC [1]) | stoichiometry N (SEC [2])
1 | B1 | 4 | –
2 | B2 | – | 4
3 | B3 | – | ~3
